The labels stand for the following.
B1: 006-H08-53-27-0 (Fab, V domains shown)
VH: EVQLLESGGGLVQPGGSLRLSCAASGFTFDDYGMSWVRQAPGKGLEMVAVISYDGSNKYYADSVKGRFTISRDNSQNTLYLQMNSLRAEDTAVYYCASPLESPVAFDIWGQGTLVTVSS
VL: QSVLTQPPSASGTPGQRVTISCSGSNSNIGSNPVNWYQQLPGTAPKLLIYDNNKRPSGVPDRFSGSKSGTSASLAISGLRSEDEADYYCQSYDTGLSGWVFGGGTKLTVL
notes: Tested as E. coli supernatant; also called maturated 006-H08 Fab variant; copies: 1 + 1
B2: 006-H08-35-17-1 (Fab, V domains shown)
VH: EVQLLESGGGLVQPGGSLRLSCAASGFTFDDYGMSWVRQAPGKGLEWVAVISYDGSNKYYADSVKGRFTISRDNSQNTLYLQMNSLRAEDTAVYYCASPLESPVAFDIWGQGTLVTVSS
VL: QSVLTQPPSASGTPGQRVTISCSGSNSNIGSNPVNWYQQLPGTAPKLLIYDNNKRPSGVPDRFSGSKSGTSASLAISGLRSEDEADYYCQSYDTGASGWVFGGGTKLTVL
notes: as for B1
B3: 006-H08-68-35-2 (Fab, V domains shown)
VH: EVQLLESGGGLVQPGGSLRLSCAASGFTFDDYGMSWVRQAPGKGLEWVAVISYDGSNKYYADSVKGRFTISRDNSQNTLYLQMNSLRAEDTAVYYCASPLESPVAFDIWGQGTLVTVSS
VL: QSVLTQPPSASGTPGQRVTISCSGSNSNVGSNPVNWYQQLPGTAPKLLIYDNNKRPSGVPDRFSGSKSGTSASLAISGLRSEDEADYYCQSYDTGLSGWVFGGGTKLTVL
notes: as for B1
B4: 006-H08-37-19-0 (Fab, V domains shown)
VH: EVQLLESGGGLVQPGGSLRLSCAASGFTFDDYGMSWVRQAPGKGLEWVAVISYDGSNKYYADSVKGRFTISRDNSQNTLYLQMNSLRAEDTAVYYCASPLESPVAFDIWGQGTLVTVSS
VL: QSVLTQPPSASGTPGQRVTISCSGSNSNIGSNPVNWYQQLPGTAPKLLIYDNNKRPSGVPDRFSGSKSGTSASLAISGLRSEDEADYYCQSYDTGLSMWVFGGGTKLTVL
notes: as for B1
B5: 006-H08-32-2 (Fab, V domains shown)
VH: EVQLLESGGGLVQPGGSLRLSCAASGFTFDDYGMSWVRQAPGKGLEMVAVISFDGSNKYYADSVKGRFTISRDNSQNTLYLQMNSLRAEDTAVYYCASPLESPVAFDIWGQGTLVTVSS
VL: QSVLTQPPSASGTPGQRVTISCSGLNSNVGSNPVNWYQQLPGTAPKLLIYDNNKRPSGVPDRFSGSKSGTSASLAISGLRSEDEADYYCQSYDEGLGGWVFGGGTKLTVL
notes: as for B1
B6: 006-H08-59-30-0 (Fab, V domains shown)
VH: EVQLLESGGGLVQPGGSLRLSCAASGFTFDDYGMSWVRQAPGKGLEWVAVISFDGSNKYYADSVKGRFTISRDNSQNTLYLQMNSLRAEDTAVYYCASPLESPVAFDIWGQGTLVTVSS
VL: QSVLTQPPSASGTPGQRVTISCSGSNSNIGSNPVNWYQQLPGTAPKLLIYDNNKRPSGVPDRFSGSKSGTSASLAISGLRSEDEADYYCQSYDTGLSGWVFGGGTKLTVL
notes: as for B1
B7: 006-H08-14-6-0 (Fab, V domains shown)
VH: EVQLLESGGGLVQPGGSLRLSCAASGFTFDDYGMSWVRQAPGKGLEWVAVISYDGSNKYYADSVKGRFTISRDNSQNTLYLQMNSLRAEDTAVYYCASPLESPVAFDIWGQGTLVTVSS
VL: QSVLTQPPSASGTPGQRVTISCSGSNSNIGSSPVNWYQQLPGTAPKLLIYDNNKRPSGVPDRFSGSKSGTSASLAISGLRSEDEADYYCQSYDTGLSGWVFGGGTKLTVL
notes: as for B1
B8: 006-H08-65-33-2 (Fab, V domains shown)
VH: EVQLLESGGGLVQPGGSLRLSCAASGFTFDDYGMSWVRQAPGKGLEWVAVISYDGSNKYYADSVKGRFTISRDNSQNTLYLQMNSLRAEDTAVYYCASPLESPVAFDIWGQGTLVTVSS
VL: QSVLTQPPSASGTPGQRVTISCSGSNDNIGSNPVNWYQQLPGTAPKLLIYDNNKRPSGVPDRFSGSKSGTSASLAISGLRSEDEADYYCQSYDTGLSGWVFGGGTKLTVL
notes: as for B1
B9: 006-H08-63-32-4 (Fab, V domains shown)
VH: EVQLLESGGGLVQPGGSLRLSCAASGFTFDDYGMSWVRQAPGKGLEWVAVISYDGSNKYYADSVKGRFTISRDNSQNTLYLQMNSLRAEDTAVYYCASPLESPVAFDIWGQGTLVTVSS
VL: QSVLTQPPSASGTPGQRVTISCSGLNSNIGSNPVNWYQQLPGTAPKLLIYDNNKRPSGVPDRFSGSKSGTSASLAISGLRSEDEADYYCQSYDTGLSGWVFGGGTKLTVL
notes: as for B1
B10: 006-H08-36-17-0 (Fab, V domains shown)
VH: EVQLLESGGGLVQPGGSLRLSCAASGFTFDDYGMSWVRQAPGKGLEWVAVISYDGSNKYYADSVKGRFTISRDNSQNTLYLQMNSLRAEDTAVYYCASPLESPVAFDIWGQGTLVTVSS
VL: QSVLTQPPSASGTPGQRVTISCSGSNSNIGSNPVNWYQQLPGTAPKLLIYDNNKRPSGVPDRFSGSKSGTSASLAISGLRSEDEADYYCQSYDTGLGGWVFGGGTKLTVL
notes: as for B1
B11: 006-H08-13-6-1 (Fab, V domains shown)
VH: EVQLLESGGGLVQPGGSLRLSCAASGFTFDDYGMSWVRQAPGKGLEWVAVISYDGSNKYYADSVKGRFTISRDNSQNTLYLQMNSLRAEDTAVYYCASPLESPVAFDIWGQGTLVTVSS
VL: QSVLTQPPSASGTPGQRVTISCSGSNSNIGGNPVNWYQQLPGTAPKLLIYDNNKRPSGVPDRFSGSKSGTSASLAISGLRSEDEADYYCQSYDTGLSGWVFGGGTKLTVL
notes: as for B1
B12: 006-H08-33-16-0 (Fab, V domains shown)
VH: EVQLLESGGGLVQPGGSLRLSCAASGFTFDDYGMSWVRQAPGKGLEWVAVISYDGSNKYYADSVKGRFTISRDNSQNTLYLQMNSLRAEDTAVYYCASPLESPVAFDIWGQGTLVTVSS
VL: QSVLTQPPSASGTPGQRVTISCSGSNSNIGSNPVNWYQQLPGTAPKLLIYDNNKRPSGVPDRFSGSKSGTSASLAISGLRSEDEADYYCQSYDEGLSGWVFGGGTKLTVL
notes: as for B1
B13: 006-H08-35-17-4 (Fab, V domains shown)
VH: EVQLLESGGGLVQPGGSLRLSCAASGFTFDDYGMSWVRQAPGKGLEWVAVISYDGSNKYYADSVKGRFTISRDNSQNTLYLQMNSLRAEDTAVYYCASPLESPVAFDIWGQGTLVTVSS
VL: QSVLTQPPSASGTPGQRVTISCSGSNSNIGSNPVNWYQQLPGTAPKLLIYDNNKRPSGVPDRFSGSKSGTSASLAISGLRSEDEADYYCQSYDTGSSGWVFGGGTKLTVL
notes: as for B1
B14: 005-C04 (human IgG1) (antibody, V domains shown)
VH: EVQLLESGGGLVQPGGSLRLSCAASGFTFSSYWMHWVRQAPGKGLEWVSDISSASSYTNYADSVKGRFTISRDNSKNTLYLQMNSLRAEDTAVYYCARGLDARRMDYWGQGTLVTVSS
VL: QSVLTQPPSASGTPGQRVTISCTGSSSNIGAGYVVHWYQQLPGTAPKLLIYRNNQRPSGVPDRFSGSKSGTSASLAISGLRSEDEADYYCAAWDDSLNGWLFGGGTKLTVLG
B15: XHA06.642 (antibody, human IgG1, V domains shown)
VH: EVQLVESGGDLVKPGGSLKLSCAVSGFTFSSYGMSWVRQTPDKRLEWVATVSSGGTYTYYPDSVKGRFTISRDNAKNTLYLQMSSLKSEDSAMYYCARHRGNYYATYYYAMDYWGQGTSVTVSS
VL: DIVLTQSPASLAVSLGQGATISCRASKSVSTSGYTYMHWYQQKPGQPPKLLIYLASNLESGVPARFSGSGSGTDFTLNIHPVEEEDAATYYCQHSGELPPSFGGGTKLEIKR
B16: 001-E06 (human IgG1) (antibody, V domains shown)
VH: QVELLESGGGLVQPGGSLRLSCAASGFTFSSYWMSWVRQAPGKGLEWVSSVSDTGTDTHYADSVKGRFTISRDNSKNTLYLQMNSLRAEDTAVYYCAKTPLAYSSGWYYFDYWGQGTLVTVSS
VL: DIVLTQPPSASGTPGQRVTISCSGSSSNIGSNTVNWYQQLPGTAPKLLIYRNYQRPSGVPDRFSGSKSGTSASLAISGLRSEDEADYYCQSYDSSLSGSVFGGGTKLTVLG

The target of the first assay is T1, extracellular domain of human PRLR (soluble, monomeric, expressed in HEK293 cells) (human, UniProt P16471 25-234).
T1 construct: also called ECD-PRLR; ECD of PRLR
T1 sequence: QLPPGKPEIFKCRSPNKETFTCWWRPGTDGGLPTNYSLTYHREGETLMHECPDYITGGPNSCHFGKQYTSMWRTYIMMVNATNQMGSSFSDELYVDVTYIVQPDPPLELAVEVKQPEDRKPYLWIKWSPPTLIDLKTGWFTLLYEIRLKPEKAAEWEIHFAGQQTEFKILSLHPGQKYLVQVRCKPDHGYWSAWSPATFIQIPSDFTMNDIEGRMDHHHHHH
As to the kind of experiment: HTRF competition: Fab-containing E. coli supernatant with biotinylated ECD of human PRLR and streptavidin-europium, then Alexa Fluor 647-labelled IgG1 006-H08 as competitor; signal at 665 nm after 5 to 65 min; lower signal than control Fab 006-H08 = improved binding [Figure 21]. The procedure: Normalized E. coli-derived supernatants and 8 nM biotinylated extracellular domain of PRLR together with 1 nM Streptavidin-Europium were incubated in 96 well-microtiter plates for 30 min. Afterwards 200 mM KF and 50 nM Alexa Fluor 647-labeled IgG1 of 006-H08 were added. This mixture was incubated at room temperature for 5, 20, 35, 50, and 65 minutes, respectively. At the indicated time points, the absorption at 665 nm (and 620 nm) was measured using EnVision MultilabelReader (Perkin Elmer).
On the technique in general: Time-resolved FRET reads energy transfer from a long-lived donor to a nearby acceptor.
For B1, the binding result is “binds”.

As for B2, the binding result is recorded as “binds”.

For the molecule B3, the binding result is on record as “binds”.

In the case of B4, the binding result is “binds”.

Take B5: the binding result is recorded as “binds”.

Take B6: the binding result is “binds”.

With B7, the binding result was “binds”.

Take B8: the binding result was “binds”.

Take B9: the binding result was “binds”.

As for B10, the binding result is “binds”.

With B11, the binding result is “binds”.

For B12, the binding result is on record as “binds”.

Consider B13, for which the binding result is “binds”.

The target in the next assay is T2, murine prolactin receptor on cells (HEK293 and Ba/F cells stably transfected with murine PRLR) (mouse, UniProt Q08501 20-608).
T2 sequence (looked up): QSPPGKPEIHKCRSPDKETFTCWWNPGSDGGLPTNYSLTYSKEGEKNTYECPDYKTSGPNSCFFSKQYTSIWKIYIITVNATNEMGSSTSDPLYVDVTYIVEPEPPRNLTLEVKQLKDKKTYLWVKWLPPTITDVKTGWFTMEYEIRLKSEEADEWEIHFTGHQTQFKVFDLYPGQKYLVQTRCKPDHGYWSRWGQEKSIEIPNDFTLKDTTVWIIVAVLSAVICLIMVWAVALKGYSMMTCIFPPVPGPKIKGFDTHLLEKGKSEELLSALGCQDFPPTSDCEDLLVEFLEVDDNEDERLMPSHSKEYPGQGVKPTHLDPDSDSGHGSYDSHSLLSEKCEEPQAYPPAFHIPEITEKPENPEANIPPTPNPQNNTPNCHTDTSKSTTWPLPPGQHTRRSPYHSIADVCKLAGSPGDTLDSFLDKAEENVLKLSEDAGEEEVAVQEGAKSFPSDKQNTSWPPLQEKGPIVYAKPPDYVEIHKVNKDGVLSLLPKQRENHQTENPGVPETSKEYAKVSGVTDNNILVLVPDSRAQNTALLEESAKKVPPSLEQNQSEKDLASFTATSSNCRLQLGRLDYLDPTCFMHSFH
As to the kind of experiment: cell-based or functional assay.
As to B14, the “IC50, inhibition of prolactin-activated proliferation of Ba/F cells stably expressing the murine prolactin receptor” value came out at 0.74 µg/mL and the “IC50, prolactin-activated luciferase reporter gene activity, HEK293 cells stably transfected with mPRLR” value amounted to 0.45 µg/mL.

B15: the “IC50, prolactin-activated luciferase reporter gene activity, HEK293 cells stably transfected with mPRLR” value was > 50 µg/mL.

Regarding B16, the “IC50, inhibition of prolactin-activated proliferation of Ba/F cells stably expressing the murine prolactin receptor” value is 43.7 µg/mL.
